Laboratory results reported in patent USRE39192E1, “Supplemented and unsupplemented tissue sealants, methods of their production and use” (American National Red Cross, priority 1990, dated 2006).
Structures can show the parent of a compound that is named as a salt.

B1: FGF-4: recombinant fibroblast growth factor-4 (protein, UniProt P08620 31-206, looked up)
Fibroblast growth factor 4: APTAPNGTLEAELERRWESLVALSLARLPVAAQPKEAAVQSGAGDYLLGIKRLRRLYCNVGIGFHLQALPDGRIGGAHADTRDSLLELSPVERGVVSIFGVASRFFVAMSSKGKLYGSPFFTDECTFKEILLPNNYNAYESYKYPGMFIALSKNGKTKKGNRVSPTMKVTHFLPRL

Legend:
E. coli = test: Antimicrobial activity of AB released from AB-FG (zone of inhibition); type: cell-based; conditions: eluates on agar plates, 18 hours at 37° C.
Method: FIG. 27. […] Then the diameter of the zone of inhibition was measured.
In order to measure the concentration and biological activity of the TFT which had been released from the TFT-FG disks, the eluted TFT was thawed and was analyzed spectrophotometrically at 320 nm and/or biologically by the inhibition of E. coli grown on agar plates.
The antimicrobial activity of the AB released from the AB-FG was estimated by measuring the diameters of the zones of inhibition generated by the eluate from the 6 mm diameter disks form the daily collected PBS or saliva surrounding the AB-FG. The eluates from unsupplemented FG served as controls. AB solutions of knwon concentration were used as standards. […] To make the culture plates, 100 μl of the bacterial cell suspension, containing approximately 10^8 cells/ml, was mixed with 3 ml of top agar at 50° C. and immediately poured onto the plate hard, bottom agar to make a uniform layer of cells. The plates were incubated at 37° C. for 18 hours.

NIH 3T3 fibroblasts = test: Cell chemotaxis assay (modified Boyden's chamber), NIH 3T3 fibroblasts; type: cell-based; conditions: for concentration of maximum stimulation of migration: FGF-1 in the presence of 10 U/ml heparin
Excerpt: (§1) NIH/3T3 fibroblasts at passage 126 were purchased from the American Type Culture Collection, Rockville, Md. Cultures from passages 129-133 were used in the chemotaxis assays. Cultures were propagated in DMEM supplemented with 10%. Calf serum and approximately 1% antibiotic antimycotic solution. Human dermal fibroblasts (HDFs) were purchased from Clonetics, Inc. (San Diego, Calif.) at passage 2. Cultures from passages 3-5 were used in the chemotaxis assays. Cultures were cultivated in DMEM supplemented with 20% FBS (Hyclone Laboratories, Inc., Logan, Utah) and approximately 1% antibiotic antimycotic solution (Gibco, Grand Island, N.Y.).
The procedure used to determine cellular chemotaxis was a combination of two known methodologies. A modification of Boyden's chamber was used as follows: Millicell-PCF (Millipore, Inc., Bedford, Mass.) (12.0 μm) 12.0 mm diameter inserts were placed in individual wells of 24 well plates to create the upper and lower chemotaxis chambers. Chemotaxis results were arrived at by performing checkerboard analysis for every combination of cells and growth factors. […] Briefly, cultures were trypsanized and placed in DMEM+0.1% Bovine Serum Albumin (BSA) (Sigma Chemical Co., St. Louis, Mo.) for approximately one hour at 37° C. in a 5% CO2 humidified chamber. Tow to 2.5×10^5 cells in 50 μl were added per insert to the upper chamber of the setup of the 24 well plates. Treatments were added as mentioned above. The assay was kept at 37° C. in a 5% CO2 humidified chamber for 4 hours. All combinations tested were performed in triplicate. At the end of 4 hours, the plates were removed from the incubator and the filters were stained following the protocol for staining included with the Millicell-PCT inserts. Briefly, the fluid surrounding the inside and outside of the Millicell-PCF inserts were removed. Three percent glutaraldehyde (Sigma Chemical Co., St. Louis, Mo.) was added to the outside and inside of the inserts for approximately 20 minutes. Following removal of the 3.0% glutaraldehyde, 0.5% Triton X-100 (E.M. Science, Cherry Hill, N.J.) was added for 5-7 minutes. On removal of the 0.5% Triton X-100, Fisher's Hematoxylin Solution Gill's Formulation (Fisher Scientific, Newark, Del.) No.1 was added for about 10 minutes. This solution was washed off in running distilled water for about 5 minutes. Using a cotton swab the upper side of the filter was swabbed to remove cells which had not migrated. Filters, were mounted lower side facing up on slides in Crystal Mount™ (Biomedia, Inc., Foster City, Calif.) solution and 10 random field were counted per slide both visually at 400× and at 200×using an Image Analyzing System to automate the enumeration of the cells on the underside of the filters.
(§2) As required, checkerboard analysis was carried out to determine random migration, and positive and negative chemotaxis. Growth factors were added to the upper and/or lower chambers to observe whether cells migrated towards the GF alone (chemotaxis), whether migration was random irrespective of whether the growth factor was added to the upper or lower well (chemokinesis) or whether cell migration was against the chemotactic gradient (negative chemotaxis).

[1] = tested on: human dermal fibroblasts (HDFs); test: Cell migration assay to FGF released from FG; type: cell-based; conditions: 24 hours
Method: FIG. 41. Graph showing the dose-response relationship of the chemotactic response of HDFs to FGF-4 in solution and in FG. FGF-4 was incorporated into FG and placed in the bottom well of chemotaxis chambers. The amount of FGF in the FG was sufficient to result in the indicated concentrations when evenly distributed throughout the FG and medium in the lower chamber. Negative controls included medium alone and FG without FGF. Medium containing FGF-4 at a concentration of […] in the lower chamber was utilized as a positive control.
Chemotaxis chambers and cells were utilized as described above. Fifty μl of 8 mg/ml Topical Fibrinogen Complex (TFC, American Red Cross, Rockville, Md.) was added to the bottom of 24 well plates. Forty μl of test growth factor+/−heparin at a final concentration of 10 U/ml (FGF-1, FGF-4 with heparin, FGF-2 alone) was added to the TFC and thoroughly mixed. Ten μl of bovine Thrombin (Armour Pharmaceutical Company, Kankakee, Ill.) was added and mixed thoroughly. The components were allowed to gel at room temperature for approximately 30 minutes. Total volume in the lower and upper chambers was made up to 0.5 ml each with DMEM+0.1% BSA. The concentration of the FGF's added to the TFC was adjusted to produce the desired overall concentration as determined by: [formula] The assay was performed at 37° C. in a5% CO2 humidified chamber for approximately 24 hours. […]

[2] = tested on: human dermal fibroblasts (HDFs); test: Cell chemotaxis assay (modified Boyden's chamber), human dermal fibroblasts; type: cell-based
Excerpt: as §1
The procedure used to determine cellular chemotaxis was a combination of two known methodologies. A modification of Boyden's chamber was used as follows: Millicell-PCF (Millipore, Inc., Bedford, Mass.) (12.0 μm) 12.0 mm diameter inserts were placed in individual wells of 24 well plates to create the upper and lower chemotaxis chambers. Chemotaxis results were arrived at by performing checkerboard analysis for every combination of cells and growth factors. Concentrations ranging from 0.1, 1, 10, 100 ng/ml with/without added heparin (10 U/ml) were used for FGF-1, FGF-2 (no heparin) and FGF-4 with all the cell types mentioned in the materials section. Briefly, cultures were trypsanized and placed in DMEM+0.1% Bovine Serum Albumin (BSA) (Sigma Chemical Co., St. Louis, Mo.) for approximately one hour at 37° C. in a 5% CO2 humidified chamber. Tow to 2.5×10^5 cells in 50 μl were added per insert to the upper chamber of the setup of the 24 well plates. Treatments were added as mentioned above. The assay was kept at 37° C. in a 5% CO2 humidified chamber for 4 hours. All combinations tested were performed in triplicate. At the end of 4 hours, the plates were removed from the incubator and the filters were stained following the protocol for staining included with the Millicell-PCT inserts. Briefly, the fluid surrounding the inside and outside of the Millicell-PCF inserts were removed. Three percent glutaraldehyde (Sigma Chemical Co., St. Louis, Mo.) was added to the outside and inside of the inserts for approximately 20 minutes. Following removal of the 3.0% glutaraldehyde, 0.5% Triton X-100 (E.M. Science, Cherry Hill, N.J.) was added for 5-7 minutes. On removal of the 0.5% Triton X-100, Fisher's Hematoxylin Solution Gill's Formulation (Fisher Scientific, Newark, Del.) No.1 was added for about 10 minutes. This solution was washed off in running distilled water for about 5 minutes. Using a cotton swab the upper side of the filter was swabbed to remove cells which had not migrated. Filters, were mounted lower side facing up on slides in Crystal Mount™ (Biomedia, Inc., Foster City, Calif.) solution and 10 random field were counted per slide both visually at 400× and at 200×using an Image Analyzing System to automate the enumeration of the cells on the underside of the filters.
as §2

[3] = Washout of 125I-HBGF-1 from FG-treated PTFE grafts in rabbit aortas; type: in vivo, New Zealand white rabbits
Method: In general, the modified F was sterilely prepared by adding approximately 1 ng/cm^2 area of the inner and outer graft surfaces of human recombinant […], 20 μg/cm^2 porcine intestinal mucosal heparin, and 2.86 mg/cm^2 fibrinogen to 2.86×10^−2 U/cm^2 reconstituted, commercially available, human thrombin (1000 U/ml) to induce polymerization.
The […] was specifically prepared as follows. Fibrinogen was reconstituted by adding 500 mg of fibrinogen into 25 ml of PBS to produce a fibrinogen concentration of 20 mg/ml of PBS. Three ml of this solution which contained 60 mg fibrinogen were placed into […] Eppendorf plastic tubes and maintained at −70° C. Each of these aliquots was used individually.
The thrombin was reconstituted by diluting a commercially available preparation thereof (Armour Pharmaceutical Co., Kankakee, Ill.) at a concentration of 1000 U/ml by a factor of 1:10 in sterile solution to produce a concentration of 100 U/ml. This thrombin solution was again diluted 1:10 to produce a solution of 10 U/ml.
The bovine heparin (Upjohn, Kalamazoo, Mich.) was reconstituted by diluting the preparation at a concentration of 1000 U/ml by a factor of 1:1000 using normal saline.
One and 48/100 (1.48) ml of the reconstituted fibrinogen, 63 μL of the reconstituted heparin, plus 15.66 μL of ^125I-HBGF-1 were mixed in a glass scintillation tube. This mixture was then aspirated into a 3 ml plastic syringe. Five ml of the reconstituted thrombin was placed into a glass scintillation tube.
One end of the expanded PTFE graft was placed over a plastic-3 way stopcock nozzle and was secured there with a 2-0 silk tie. The PTFE was then encircled with a 3×3 cm square of Parafilm™ which was then crimped there with a straight hemostat to establish a watertight seal. A second 2-0 silk tie was positioned over the parafilm adjacent to the stopcock to form another seal. A straight hemostat was then used to clamp the distal 2 mm of the PTFE/parafilm to seal this end.
Equal volumes of fibrinogen and thrombin solution prepared as described above were mixed and allowed to react for approximately 30 seconds which is when polymerization occurs. The thrombin-polymerized fibrin is then opaque. (This time factor is approximate and varies from one thrombin lot to another. The appropriate length of time to polymerization can be determined by viewing the opacity of the mixture). The fibrin/thrombin mixture was aspirated into a one cc syringe. (NOTE: The volume of this graft was 0.42 ml. For a graft with a larger volume one needs to use a larger syringe). […] The treated graft was then ready for implantation. […]

| Molecule | antimicrobial activity of released AB (E. coli) | checkerboard analysis (NIH 3T3 fibroblasts) | concentration of maximum stimulation of migration (NIH 3T3 fibroblasts) [ng/mL] | checkerboard analysis [2] | concentration of maximum stimulation of migration [2] [mg/mL] | maximal migratory response over negative control [2] [fold] | further results |
| --- | --- | --- | --- | --- | --- | --- | --- |
| O=C(O)c1cn(C2CC2)c2cc(N3CCNCC3)c(F)cc2c1=O [CIP, Ciprofloxacin HCl] | parallels the profiles determined spectrophotometrically |  |  |  |  |  |  |
| FGF-2: recombinant fibroblast growth factor-2 |  | chemotactic | 1 | chemotactic | 10 | 12 | concentration in FG eliciting peak chemotactic response [1]: 0.01 mg/mL |
| Cc1ncc([N+](=O)[O-])n1CCO [MET, Metronidazole] | parallels the profiles determined spectrophotometrically |  |  |  |  |  |  |
| ^125I-HBGF-1: radiolabelled human recombinant HBGF-1 in FG applied to PTFE grafts |  |  |  |  |  |  | remaining 125I-HBGF-1, percentage of the zero time value ([3]; after 1 week): 13.44%±6.9%; washout of 125I-HBGF-1 ([3]; after 1 hr): −0.03 %/min; remaining 125I-HBGF-1, percentage of the zero time value ([3]; after 30 days): 3.8%±1.1%; washout of 125I-HBGF-1 ([3]; between 5 and 60 minutes): −24.1 %/min |
| B1 |  | chemotactic | 10 | chemotactic | 10 | 10 | incorporated and total concentration in FG eliciting maximal migratory response [1]: 1 ng/mL |
